Holding throughout (assay): radioligand binding, displacement of [125I]EPO
A general note: Loss of bound radioactivity is the signal in a displacement assay; it reports binding, not function.

The target in test [1] is T1, erythropoietin receptor, human recombinant (NSO cells) (human) (UniProt P19235).
T1 sequence (looked up): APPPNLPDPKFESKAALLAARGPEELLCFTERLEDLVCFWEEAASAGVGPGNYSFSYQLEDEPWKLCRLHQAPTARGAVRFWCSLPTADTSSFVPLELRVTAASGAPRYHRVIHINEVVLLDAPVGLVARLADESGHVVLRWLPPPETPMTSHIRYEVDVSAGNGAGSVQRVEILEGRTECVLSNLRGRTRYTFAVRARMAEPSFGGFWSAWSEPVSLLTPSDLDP

Test [2] concerns the target T2, erythropoietin receptor, human recombinant (NSO cells) (human, UniProt P19235 25-250, limits assumed).
T2 construct: also called EPOR; EPO receptor
T2 sequence (looked up): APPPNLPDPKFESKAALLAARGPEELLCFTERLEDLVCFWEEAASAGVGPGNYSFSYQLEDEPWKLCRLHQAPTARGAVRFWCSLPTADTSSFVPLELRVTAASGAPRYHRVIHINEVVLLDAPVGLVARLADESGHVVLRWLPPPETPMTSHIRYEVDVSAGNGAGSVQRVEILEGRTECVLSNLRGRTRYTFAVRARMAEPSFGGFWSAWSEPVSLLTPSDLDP

Test [3] addresses T2, erythropoietin receptor, human …. This is another data set of the same source.
Test [4] has the same target. The source holds these as a separate data set.

Where two headings read alike, the source gives them in different places. Where no end group is shown, it is not given here. [ ]: non-standard residue; d: D form. hLeu = CC(C)CC[C@H](N)C(=O)O; βAla = NCCC(=O)O

Consider Ac-NYLRMGWVRP (peptide, part only; not given: Bridge, linker and tail moieties, not shown: small tags and cut ends, also: two linked chains, linker and second chain not given here) [EPO mimetic 4. (N-End AcNYL, Loop RMGWV, Mid RP)], for which the Ki in test [1] amounted to 44 nM.

B1: AC-0005-002 (peptide)
chain: GGLYACHMGPITAVCQPQGG
modifications: not fully specified; cysteine pairing not given here
notes: Structure only as drawing CHEM-US-00004; also called compound 002
For the molecule B1, in test [2], the half-maximal inhibitory concentration (IC50) was 8170 nM, the Ki came to 3870 nM and the “Ki (AC-0005-002)/Ki” value came out at 1.
For Ac-NYLRMLWVRP (peptide, part only; not given: Bridge, linker and tail moieties, not shown: small tags and cut ends, also: two linked chains, linker and second chain not given here) [EPO mimetic 8. (N-End AcNYL, Loop RMLWV, Mid RP)], the Ki in test [1] was 34 nM.
For Ac-NYLRM[hLeu]WVRP (peptide, part only; not given: Bridge, linker and tail moieties, not shown: small tags and cut ends, also: two linked chains, linker and second chain not given here) [EPO mimetic 9. (N-End AcNYL, Loop RMhomoLWV, Mid RP)], the Ki in test [1] stood at 23 nM.

B2: AC-0005-004 (peptide)
chain: LYACHMGPITAVCQP
modifications: not fully specified; cysteine pairing not given here
notes: Structure only as drawing CHEM-US-00006; also called compound 004
Turning to B2, in test [2], the IC50 worked out at 265 nM, the Ki was 126 nM and the “Ki (AC-0005-002)/Ki” value was found to be 31.
Regarding Ac-NYLRM[βAla]WVKP (peptide, part only; not given: Bridge, linker and tail moieties, not shown: small tags and cut ends, also: two linked chains, linker and second chain not given here) [EPO mimetic 3. (N-End AcNYL, Loop RMβAWV, Mid KP)], the Ki in test [1] was found to be 27 nM.

B3: AC-0005-003 (peptide)
chain: NYLCRMGPITWVCKP
modifications: not fully specified; cysteine pairing not given here
notes: Structure only as drawing CHEM-US-00005; also called compound 003; Control 2: AC-0005-003
For B3, in test [2], the IC50 came out at 119 nM, the Ki was 56 nM and the “Ki (AC-0005-002)/Ki” value worked out at 69. Further, in test [3], the IC50 was 171 nM, the Ki was 81 nM and the “Ki (AC-0005-002)/Ki” value amounted to 48. In test [4], the concentration for half-maximal inhibition (IC50) worked out at 164 nM, the Ki was found to be 78 nM and the “Ki (AC-0005-002)/Ki” value was 0.041.
Consider [DesaminoY]LRMPWVKP (peptide, part only; not given: Bridge, linker and tail moieties, not shown: small tags and cut ends, also: two linked chains, linker and second chain not given here) [EPO mimetic 15. (N-End Desamino YL, Loop RMPWV, Mid KP)], for which the Ki in test [1] was determined as 9.6 nM.
Regarding Ac-NYLRMGWVKP (peptide, part only; not given: Bridge, linker and tail moieties, not shown: small tags and cut ends, also: two linked chains, linker and second chain not given here) [EPO mimetic 2. (N-End AcNYL, Loop RMGWV, Mid KP)], the Ki in test [1] was determined as 22 nM.
As for Ac-NYLRMFWVRP (peptide, part only; not given: Bridge, linker and tail moieties, not shown: small tags and cut ends, also: two linked chains, linker and second chain not given here) [EPO mimetic 6. (N-End AcNYL, Loop RMFWV, Mid RP)], the Ki in test [1] worked out at 17 nM.

B4: AC-0005-001 (peptide)
chain: GGNYLCRMGPITWVCKPQGG
modifications: not fully specified; cysteine pairing not given here
notes: Structure only as drawing CHEM-US-00003; also called compound 001
As for B4, in test [2], the IC50 turned out to be 1300 nM, the inhibition constant Ki stood at 615 nM and the “Ki (AC-0005-002)/Ki” value is 6.3.

A word on the Ki: it is a dissociation constant, usually derived from enzyme kinetics or from competition with a known ligand. By IC50 is commonly meant the concentration at which inhibition is half-maximal.

Source of the values: patent US20170029481A1 (EPODOSE, published 2017).
